The values that follow come from patent US20030087411.

This data set has as its system DAKAR-FLAG fusion protein (murine DAKAR residues 1 to 786 fused to FLAG).

On to “purified recombinant active caspase 3 (Pharmingen)”, for which the “cleavage products on SDS-PAGE / Western blot after in vitro incubation with the caspase” value was “in vitro incubation of DAKAR with 100 ng caspase 3 resulted in formation of approximately 40 and 45 kDa cleavage products”.
For the substance “purified recombinant active caspase 8 (Pharmingen)”, the “cleavage products on SDS-PAGE / Western blot after in vitro incubation with the caspase” value was “incubation of DAKAR with 100 ng caspase 8 resulted in the formation of a 22 kDa cleavage product”.
